According to patent publication US5179196A, “Purification of proteins employing CTAP-III fusions” (SRI International, priority 1989, dated 1993):
Read-outs that look alike come from different tables or passages of the source.

Legend:
[1] = tested on: B16/F10 cells (murine melanoma); assay: Cell adhesion assay, tumor cells binding to peptide-coated wells; format: cell-based; conditions: summary of Table 2
Text: One of the assays used to measure the activity of the laminin B1 peptide measures the binding of tumor cells containing the laminin receptor to the peptide immobilized on the surface of a culture tissue (Graf et al (1987) Cell 48:989-996). This assay is a convenient and sensitive method for routine measurement of laminin cell receptor binding and therefore a good indicator of laminin antagonist activity.
The laminin B1 -40 peptide, along with the previously described YIGSR and CDPGYIGSR peptides, were dissolved in phosphate-buffered saline (PBS) and were coated onto Falcon #3915 polystyrene 96-well plates at 37° C. for 60 min. The peptide solutions were removed, and the wells were washed twice with PBS. Non-specific cell binding was prevented by adding 200 ul 0.1% bovine serum albumin (BSA) (Sigma #4965) in PBS to the wells and incubating for 60 min at 37° C. The BSA was removed by washing twice with PBS. […] The optical density of the solutions was read on a Molecular Devices Corporation plate reader at a wavelength between 590 nm and 405 nm. Extrapolation of optical density to number of cells bound was done by comparison of readings to a standard curve obtained by incubating various numbers of cells in microtiter plate wells for 5 h (to allow firm attachment but no significant dividing), and washing and staining as described above.

Isoelectric point (pI) = format: physicochemical
thrombin [2] = molecular target: T1, thrombin (Homo sapiens, UniProt P00734); assay: Specific activity of recombinant hirudin (antithrombin activity), applicant's hirudin; format: biochemical
Text: There are a number of activity assays developed to determine the quality of hirudin preparations and for use in quantitating hirudin in various biochemical and pharmacological experiments. Two of these methods have been refined herein and may be used routinely and reproducibly. The first, a chromogenic substrate assay measures the inhibition by hirudin of thrombin's ability to hydrolyze small synthetic peptide substrates. The second, a fibrin-clotting assay, measures the kinetics of clot formation, using either human plasma or purified fibrinogen as the thrombin substrate.
In the chromogenic assay, antithrombin activity is achieved by measuring the inhibition of release of p-nitroaniline from the chromogenic substrate H-D-phenylalanyl-L-pipecolyl-L-arginine-p-nitroanilide dihydrochloride (S-2238, supplied by Kabivitrum) by thrombin in the presence of hirudin. Thrombin concentration is 2 nM (typically 0.12 NIH units/ml), and hirudin can be assayed reproducibly at an approximate concentration range of 0.3 to 1 nM, using 296 uM substrate in 50 mM Tris buffer, 100 mM NaCl, pH 7.8, and 0.1% polyethylene glycol-6000 (PEG). PEG is included to inhibit binding of thrombin to the plastic surface of the microplate or cuvette; for the same reason, reaction vessels are pretreated with 1% PEG-20,000 prior to assay.
Hirudin inhibits the thrombin-mediated conversion of fibrinogen into a fibrin clot. […]

thrombin [3] = molecular target: T1, thrombin; conditions: E. coli, cited from earlier work

Molecule | binding of metastatic tumor cells compared with YIGSR or CDPGYIGSR (in words) [1] | pI (isoelectric point) (Isoelectric point (pI)) | Sp. Act. (thrombin [2]; AT (antithrombin units), E. coli, pNP6ΔRI-CRM/HIR, intracellular (Example 4)) | specific activity (thrombin [2]; purified hirudin HV-1 standard) | Sp. Act. (thrombin [3]; pMF1, lacUV5/tac, intracellular) | Sp. Act. (thrombin [3]; IU, international units, pHIR20 lam-PL, intracellular) | Sp. Act. (thrombin [3]; IU, international units, pHIR21 tac, periplasmic secretion)
Pro1 -Cys Pro Asp Gly Pro Asp Ser Gly Arg Gln Phe Ala Arg Ser Cys Tyr Gln Asp Pro Val Thr Leu Gln Leu Ala X Val Cys Asp Pro Gly Tyr Ile Gly Ser Arg Cys Asp Asp-Y [LamB1 -40] | binds metastatic tumor cells more effectively | 3.65 | – | – | – | – | –
HV-1: hirudin variant 1, thrombin inhibitor of Hirudo medicinalis, produced from a synthetic DNA | – | 3.8 | 11,300 U/mg | greater than 10 antithrombin units per ug | 8,500 U/mg | 500 U/mg | 560 U/mg
CTAP-III(Leu21): analog of CTAP-III in which the methionine at position 21 is replaced with leucine (protein, UniProt P02775 44-128, looked up, variant M21L, Connective tissue-activating peptide III) Connective tissue-activating …: NLAKGKEESLDSDLYAELRCLCIKTTSGIHPKNIQSLEVIGKGTHCNQVEVIATLKDGRKICLDPDAPRIKKIVQKKLAGDESAD | – | approximately 7.8 | – | – | – | – | –
